From patent US20100015126A1, “Methods of Binding of Cross-Beta Structures By Chaperones” (priority 2006, published 2010)

Experiments:
[1] = target: Hypothetical protein/Heat shock 70 kDa protein 5 (glucose-regulated protein, 78 kDa = GRP78 = BiP = HSPA5), as identified in eluates (human) (UniProt P11021); experiment: BiP-Sepharose pull-down, RA synovial fluid sample 1B, 1 M NaCl eluate, MS; BiP may stem from the column
[2] = target: Heat shock 70 kDa protein 1L (human) (UniProt P34931); experiment: BiP-Sepharose pull-down, RA synovial fluid sample 5B, 1 M NaCl eluate, MS; may be indirect
[3] = target: fibronectin 1 isoform 4 preproprotein (human) (UniProt P02751); experiment: as above
Sequence of fibronectin 1 isoform 4 preproprotein (human) (P02751 other isoform, or with tags, fused parts or gaps limits assumed): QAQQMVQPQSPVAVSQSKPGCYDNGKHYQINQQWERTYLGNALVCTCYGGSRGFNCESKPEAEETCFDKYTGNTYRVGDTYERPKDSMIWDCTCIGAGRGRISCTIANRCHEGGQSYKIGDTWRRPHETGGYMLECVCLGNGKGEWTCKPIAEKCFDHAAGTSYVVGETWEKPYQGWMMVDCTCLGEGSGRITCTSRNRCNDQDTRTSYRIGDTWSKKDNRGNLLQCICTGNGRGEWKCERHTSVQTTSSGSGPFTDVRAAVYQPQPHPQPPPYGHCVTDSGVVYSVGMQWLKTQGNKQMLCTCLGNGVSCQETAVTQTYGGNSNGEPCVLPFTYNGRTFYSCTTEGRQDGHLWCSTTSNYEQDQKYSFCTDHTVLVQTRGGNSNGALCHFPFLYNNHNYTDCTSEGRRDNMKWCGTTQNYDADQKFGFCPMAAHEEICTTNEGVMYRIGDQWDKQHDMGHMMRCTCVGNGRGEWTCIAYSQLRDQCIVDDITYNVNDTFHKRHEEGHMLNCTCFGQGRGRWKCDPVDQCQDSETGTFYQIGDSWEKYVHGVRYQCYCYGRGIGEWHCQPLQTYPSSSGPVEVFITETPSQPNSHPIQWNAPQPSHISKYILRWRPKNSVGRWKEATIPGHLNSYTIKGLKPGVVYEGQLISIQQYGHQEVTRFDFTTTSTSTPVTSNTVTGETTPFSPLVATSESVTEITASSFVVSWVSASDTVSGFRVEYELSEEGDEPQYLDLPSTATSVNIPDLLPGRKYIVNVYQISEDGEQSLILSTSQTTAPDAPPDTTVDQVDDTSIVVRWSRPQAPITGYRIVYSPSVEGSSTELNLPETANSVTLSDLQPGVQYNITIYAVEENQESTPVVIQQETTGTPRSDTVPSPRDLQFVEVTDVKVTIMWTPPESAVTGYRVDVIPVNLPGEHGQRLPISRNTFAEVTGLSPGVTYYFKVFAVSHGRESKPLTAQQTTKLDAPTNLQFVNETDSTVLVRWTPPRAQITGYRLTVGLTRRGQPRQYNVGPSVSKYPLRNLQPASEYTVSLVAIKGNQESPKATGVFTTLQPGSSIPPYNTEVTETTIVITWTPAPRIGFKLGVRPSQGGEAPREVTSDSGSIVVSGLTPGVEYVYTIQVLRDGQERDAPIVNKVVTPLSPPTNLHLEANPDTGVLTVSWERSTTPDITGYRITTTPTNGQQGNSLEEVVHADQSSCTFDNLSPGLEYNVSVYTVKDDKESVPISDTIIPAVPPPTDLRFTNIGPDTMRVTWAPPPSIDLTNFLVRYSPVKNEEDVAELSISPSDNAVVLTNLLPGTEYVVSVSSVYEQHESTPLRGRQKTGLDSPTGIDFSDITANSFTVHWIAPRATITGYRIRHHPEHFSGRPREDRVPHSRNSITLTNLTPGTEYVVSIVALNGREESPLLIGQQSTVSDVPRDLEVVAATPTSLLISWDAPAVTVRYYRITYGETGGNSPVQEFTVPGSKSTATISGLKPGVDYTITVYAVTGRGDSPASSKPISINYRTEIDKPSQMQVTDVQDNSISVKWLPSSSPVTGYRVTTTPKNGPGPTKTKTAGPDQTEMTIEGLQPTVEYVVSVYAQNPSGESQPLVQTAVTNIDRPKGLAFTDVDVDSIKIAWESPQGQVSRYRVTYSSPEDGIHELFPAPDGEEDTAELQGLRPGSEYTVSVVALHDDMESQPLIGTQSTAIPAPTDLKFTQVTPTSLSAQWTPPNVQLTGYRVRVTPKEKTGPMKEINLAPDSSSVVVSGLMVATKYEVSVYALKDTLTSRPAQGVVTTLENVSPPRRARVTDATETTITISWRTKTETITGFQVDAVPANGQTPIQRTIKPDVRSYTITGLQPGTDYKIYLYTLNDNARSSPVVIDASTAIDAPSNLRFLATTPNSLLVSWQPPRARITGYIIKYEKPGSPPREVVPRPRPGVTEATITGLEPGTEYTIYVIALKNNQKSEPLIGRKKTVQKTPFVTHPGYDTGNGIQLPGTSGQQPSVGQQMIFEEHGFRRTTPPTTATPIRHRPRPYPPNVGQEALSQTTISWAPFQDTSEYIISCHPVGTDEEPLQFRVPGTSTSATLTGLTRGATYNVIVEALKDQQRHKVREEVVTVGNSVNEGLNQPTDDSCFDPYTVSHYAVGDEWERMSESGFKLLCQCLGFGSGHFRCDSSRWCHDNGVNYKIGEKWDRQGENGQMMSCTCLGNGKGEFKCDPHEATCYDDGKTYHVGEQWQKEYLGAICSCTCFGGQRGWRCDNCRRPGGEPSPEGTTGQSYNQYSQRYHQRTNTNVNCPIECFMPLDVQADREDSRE

[4] = target: Histidine-rich glycoprotein precursor (human) (UniProt P04196); experiment: as above
Sequence of Histidine-rich glycoprotein precursor (human) (P04196 19-525 limits assumed): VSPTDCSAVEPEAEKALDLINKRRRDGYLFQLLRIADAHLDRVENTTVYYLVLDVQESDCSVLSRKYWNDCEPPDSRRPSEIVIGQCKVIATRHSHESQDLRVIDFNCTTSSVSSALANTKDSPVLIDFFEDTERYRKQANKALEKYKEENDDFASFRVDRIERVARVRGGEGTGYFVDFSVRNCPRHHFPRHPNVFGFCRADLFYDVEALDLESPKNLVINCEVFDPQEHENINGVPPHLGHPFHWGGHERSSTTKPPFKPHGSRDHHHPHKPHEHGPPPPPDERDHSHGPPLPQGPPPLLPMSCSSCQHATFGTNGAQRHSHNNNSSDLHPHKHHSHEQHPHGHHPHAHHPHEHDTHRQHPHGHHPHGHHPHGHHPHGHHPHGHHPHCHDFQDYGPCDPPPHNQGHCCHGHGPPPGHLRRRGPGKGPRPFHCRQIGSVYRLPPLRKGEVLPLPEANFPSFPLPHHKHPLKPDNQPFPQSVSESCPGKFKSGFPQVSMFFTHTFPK

[5] = target: Vitronectin precursor (Serum-spreading factor/S-protein) (human) (UniProt P04004); experiment: as above
[6] = target: 187 kDa protein/Complement component 3 (human) (UniProt P01024); experiment: as above
Sequence of 187 kDa protein/Complement component 3 (human) (P01024 23-1663 limits assumed): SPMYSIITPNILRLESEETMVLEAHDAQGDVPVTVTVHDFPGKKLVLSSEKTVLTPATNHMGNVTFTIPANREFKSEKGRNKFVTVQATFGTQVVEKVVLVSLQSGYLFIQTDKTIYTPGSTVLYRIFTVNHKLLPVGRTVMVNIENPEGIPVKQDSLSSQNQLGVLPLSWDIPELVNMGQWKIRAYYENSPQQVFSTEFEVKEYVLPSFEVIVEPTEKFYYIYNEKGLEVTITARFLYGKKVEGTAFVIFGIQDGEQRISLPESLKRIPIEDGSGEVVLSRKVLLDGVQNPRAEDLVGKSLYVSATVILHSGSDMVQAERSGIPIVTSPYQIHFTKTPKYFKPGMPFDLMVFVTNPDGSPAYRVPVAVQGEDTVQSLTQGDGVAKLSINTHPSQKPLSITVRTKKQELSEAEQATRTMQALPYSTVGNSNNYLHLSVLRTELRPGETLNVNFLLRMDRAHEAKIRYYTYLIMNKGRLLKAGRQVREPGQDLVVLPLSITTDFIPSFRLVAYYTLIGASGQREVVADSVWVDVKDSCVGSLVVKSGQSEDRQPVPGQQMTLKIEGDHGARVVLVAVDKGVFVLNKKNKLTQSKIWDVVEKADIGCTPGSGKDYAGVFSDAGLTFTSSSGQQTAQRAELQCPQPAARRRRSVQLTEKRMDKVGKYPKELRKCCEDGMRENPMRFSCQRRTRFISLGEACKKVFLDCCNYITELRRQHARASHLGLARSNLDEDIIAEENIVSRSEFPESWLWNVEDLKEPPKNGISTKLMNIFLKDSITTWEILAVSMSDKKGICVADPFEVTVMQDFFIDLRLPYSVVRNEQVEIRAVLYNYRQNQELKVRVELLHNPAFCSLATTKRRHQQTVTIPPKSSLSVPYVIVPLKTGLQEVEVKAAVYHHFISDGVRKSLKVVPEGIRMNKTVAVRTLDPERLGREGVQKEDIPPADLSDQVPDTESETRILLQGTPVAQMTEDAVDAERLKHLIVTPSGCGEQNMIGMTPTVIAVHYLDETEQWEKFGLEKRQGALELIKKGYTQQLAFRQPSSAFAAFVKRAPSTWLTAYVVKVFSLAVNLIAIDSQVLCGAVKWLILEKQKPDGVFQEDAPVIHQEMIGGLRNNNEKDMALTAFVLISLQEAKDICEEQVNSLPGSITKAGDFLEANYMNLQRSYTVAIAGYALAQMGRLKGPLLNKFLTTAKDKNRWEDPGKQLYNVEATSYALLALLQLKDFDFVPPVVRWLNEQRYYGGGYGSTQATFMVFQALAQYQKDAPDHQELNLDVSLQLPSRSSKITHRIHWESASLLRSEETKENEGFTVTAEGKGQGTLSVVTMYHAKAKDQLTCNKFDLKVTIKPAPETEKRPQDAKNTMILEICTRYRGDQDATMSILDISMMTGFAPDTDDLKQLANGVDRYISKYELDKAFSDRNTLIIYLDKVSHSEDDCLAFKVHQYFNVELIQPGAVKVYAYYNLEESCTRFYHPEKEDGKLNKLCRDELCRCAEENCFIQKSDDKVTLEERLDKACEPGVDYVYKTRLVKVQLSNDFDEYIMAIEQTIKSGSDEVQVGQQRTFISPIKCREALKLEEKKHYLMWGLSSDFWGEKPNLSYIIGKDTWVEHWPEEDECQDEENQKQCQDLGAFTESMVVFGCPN

[7] = target: 25 kDa protein/immunoglobulin lambda chain/rheumatoid factor G9 light chain (lambda V3)/IGLC1 protein (human) (UniProt P0CG04); experiment: as above
[8] = target: Isoform H17 of Myeloperoxidase precursor (human) (UniProt P05164); experiment: BiP-Sepharose pull-down, RA synovial fluid sample 1B, 1 M NaCl eluate, MS; may be indirect
[9] = target: Haptoglobin precursor (human) (UniProt P00738); experiment: as above
[10] = target: IGHM protein, immunoglobulin heavy chain mu (heavy chain disease protein) (human) (UniProt P01871); experiment: as above
[11] = target: Apolipoprotein A-II precursor (human) (UniProt P02652); experiment: as above
[12] = target: Galectin-3-binding protein precursor (human) (UniProt Q08380); experiment: as above
[13] = target: Apolipoprotein E precursor/Apolipoprotein E/Apolipoprotein E3 (Fragment) (human) (UniProt P02649); experiment: as above
[14] = target: IGHG4 protein, immunoglobulin heavy constant gamma 4 (human) [IgG part: P01861]; experiment: as above
[15] = target: IGKV1-5 protein, immunoglobulin kappa variable 1-5 (human) (UniProt P01602); experiment: as above
[16] = target: Apolipoprotein A-I precursor (human) (UniProt P02647); experiment: as above
[17] = target: FLJ00385 protein (Fragment), immunoglobulin heavy constant mu (human) (UniProt P01871); experiment: as above
[18] = target: IGHM protein, coagulation factor VII (serum prothrombin conversion accelerator) (human) (UniProt P08709); experiment: as above
[19] = target: Heat shock 70 kDa protein 1L (human) (UniProt P34931); experiment: as above
[20] = target: Apolipoprotein A-IV precursor (human) (UniProt P06727); experiment: as above
[21] = target: fibronectin 1 isoform 4 preproprotein (human) (UniProt P02751); experiment: as above
[22] = target: Hypothetical protein DKFZp686I04196 (Fragment)/Immunoglobulin heavy constant gamma 2 (G2m marker)/Ig gamma-2 chain C region (human) [IgG part: P01859]; experiment: as above
[23] = target: Histidine-rich glycoprotein precursor (human) (UniProt P04196); experiment: as above
[24] = target: Histone H2B type 2-E (human) (UniProt Q16778); experiment: as above
[25] = target: Vitronectin precursor (Serum-spreading factor/S-protein) (human) (UniProt P04004); experiment: as above
[26] = target: Single-chain Fv (Fragment), Ig heavy chain V-III region TRO (human) (UniProt P01762); experiment: as above
[27] = target: Isoform A of Proteoglycan-4 precursor (human) (UniProt Q92954); experiment: as above
[28] = target: Isoform 1 of Fibrinogen alpha chain precursor (human) (UniProt P02671); experiment: as above
[29] = target: 187 kDa protein/Complement component 3 (human) (UniProt P01024); experiment: as above
[30] = target: Clusterin precursor (human) (UniProt P10909); experiment: as above

Sequence of recombinant human BiP with C-terminal linker, FLAG-tag and His-tag (BiP-FLAG-His) (P11021 other isoform, or with tags, fused parts or gaps): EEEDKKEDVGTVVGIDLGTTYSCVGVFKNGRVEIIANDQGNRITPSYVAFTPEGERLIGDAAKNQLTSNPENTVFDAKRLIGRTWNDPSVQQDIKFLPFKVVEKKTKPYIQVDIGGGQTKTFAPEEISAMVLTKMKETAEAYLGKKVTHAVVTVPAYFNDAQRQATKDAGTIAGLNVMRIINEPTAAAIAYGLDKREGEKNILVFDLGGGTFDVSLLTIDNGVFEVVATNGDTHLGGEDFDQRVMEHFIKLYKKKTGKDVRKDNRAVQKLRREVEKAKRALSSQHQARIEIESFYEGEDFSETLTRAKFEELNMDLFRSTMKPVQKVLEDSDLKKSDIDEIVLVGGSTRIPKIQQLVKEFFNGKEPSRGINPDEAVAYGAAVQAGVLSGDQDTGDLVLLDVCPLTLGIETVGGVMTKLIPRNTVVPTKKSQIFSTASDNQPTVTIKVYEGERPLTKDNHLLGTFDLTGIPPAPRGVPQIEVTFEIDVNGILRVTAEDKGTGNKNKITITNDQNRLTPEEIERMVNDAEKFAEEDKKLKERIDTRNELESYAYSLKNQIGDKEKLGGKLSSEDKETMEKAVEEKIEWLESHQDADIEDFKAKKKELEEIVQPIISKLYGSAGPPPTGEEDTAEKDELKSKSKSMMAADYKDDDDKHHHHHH

With “recombinant human BiP with C-terminal linker, FLAG-tag and His-tag (BiP-FLAG-His) (from UniProt P11021 19-654)” the # of unique peptides [1] was 21 peptides, the # of unique peptides [2] was 1 peptides and the # of unique peptides [3] was 2 peptides. For the same substance, the # of unique peptides [4] was 1 peptides, the # of unique peptides [5] was 2 peptides and the # of unique peptides [6] was 1 peptides. The # of unique peptides [7] was 1 peptides, the # of unique peptides [8] was 1 peptides and the # of unique peptides [9] was 1 peptides. It also gave a # of unique peptides [10] of 3 peptides, a # of unique peptides [11] of 1 peptides and a # of unique peptides [12] of 1 peptides. For the same substance, the # of unique peptides [13] was 1 peptides, the # of unique peptides [14] was 4 peptides and the # of unique peptides [15] was 3 peptides. The # of unique peptides [16] was 3 peptides, the # of unique peptides [17] was 1 peptides and the # of unique peptides [18] was 2 peptides. It also gave a # of unique peptides [19] of 1 peptides, a # of unique peptides [20] of 3 peptides and a # of unique peptides [21] of 10 peptides. For the same substance, the # of unique peptides [22] was 1 peptides, the # of unique peptides [23] was 2 peptides and the # of unique peptides [24] was 2 peptides. The # of unique peptides [25] was 1 peptides, the # of unique peptides [26] was 2 peptides and the # of unique peptides [27] was 2 peptides. It also gave a # of unique peptides [28] of 3 peptides, a # of unique peptides [29] of 2 peptides and a # of unique peptides [30] of 1 peptides.
